In paper PMC2993938, “Characterization of an Antennal Carboxylesterase from the Pest Moth Spodoptera littoralis Degrading a Host Plant Odorant” (PLoS ONE, 2010) one finds Km data, which are given here for one protein.

Substrate in this data set: CC/C=C\CCOC(C)=O
In words: GC quantification of (Z)-3-hexenol formed, nonlinear regression. The data set is classed as biochemical, Spodoptera littoralis. The settings on record: 20 mM Tris pH 7.4 and 28 °C (stated for the hydrolysis assay), 5 min incubation, 1 mM to 20 mM substrate, no detergent.

As usually defined, the Km is the substrate concentration at which the rate is half of its maximum.

B1: SlCXE10 (Spodoptera littoralis) (protein)
chain: MVQVRVSEGVLEGEQVQNEYGGSFYRFRGIPYAQPPLGDLRFKAPQPIKPWQGVRQAKQFGSVCYQYNPTNLGLSNMSEDCLYVNVYTPDIKPQTPIPVMVWIHGGGFMWGSGNDDLYGPEFLIRHNVVLVTFNYRLEALGFLCLDTADVPGNAGMKDQVAALRWVKRNIANFGGNPDNITIFGESAGGGSVSHHLISPMSKGLFNRAIPQSGSTACFWATAFEPKEKAILLAKQLGFHSEDPKELYEFFKKQPCENLVKLNLQVTTSQKSYEIHFSIANEKDFGQERFFYGDIVDVIKNNLQEGVDIMTGYTKDEYTIAVSIGGPLEDILAKAQRYREFFAPKLLHNYGTITDQLEAARKLQKFYFKNEKVSKDNIDNLLNYMSVDMFVYGVMFAAKLYSRKNKVYVYKFNCFSERNVLANAFCVGHLTDDRSVVSHADDLAYLFPVKLFTQKVNKTSVTFKLIDRVTTLWTNFAKYGNPTPDDSLGVKWLPYTLAAQDYMDIGNTLVPGNSPDKEELDFWESVLHQHLPKFSTLNQ
notes: complete ORF (no signal peptide), C-terminal 6His tag kept (pBlueBac4.5/V5-His TOPO), baculovirus / Sf21 cells, Ni-NTA purified, about 60 kDa (predicted 61 kDa)
B1: the Km turned out to be 11.4 ± 4.8 mM.
